Data set [1] has as its target endogenous pro-Monalysin (Pseudomonas entomophila (endogenous in strain L48)) (UniProt Q1I8U1). The data set is described as follows: high-speed atomic force microscopy; on mica surface in PBS buffer, room temperature (24-26°C).
For data set [2] the target is unchanged. Put plainly: high-speed atomic force microscopy; on mica surface in low salt buffer (30 mM NaCl, 10 mM sodium phosphate, pH 7.0), strongly immobilised.
Data set [3] deals with the molecule itself. The data set is described as follows: MALDI-TOF MS; active-Monalysin mixed with sinapic acid matrix; molecular weight of the multimer.
Data set [4] concerns the molecule itself. The data set is described as follows: high-speed atomic force microscopy; on mica surface in low salt buffer (30 mM NaCl, 10 mM sodium phosphate, pH 7.0), strongly immobilised.

Broadly, the stoichiometry N is the number of molecules, sites or subunits per partner or assembly. As to “endogenous pro-Monalysin (from UniProt Q1I8U1 1-271) (natural protein)”, the stoichiometry N in data set [1] was 16; in data set [2] it was 8.

B1: active-Monalysin (trypsin-treated endogenous pro-Monalysin) (natural protein, UniProt Q1I8U1 34-271, looked up)
chain: NLSGRFDQYPTKKGDFAIDGYLLDYSSPKQGCWVDGITVYGDIYIGKQNWGTYTRPVFAYLQYVETISIPQNVTTTLSYQLTKGHTRSFETSVNAKYSVGANIDIVNVGSEISTGFTRSESWSTTQSFTDTTEMKGPGTFVIYQVVLVYAHNATSAGRQNANAFAYSKTQAVGSRVDLYYLSAITQRKRVIVPSSNAVTPLDWDTVQRNVLMENYNPGSNSGHFSFDWSAYNDPHRRY
notes: Monalysin of Pseudomonas entomophila, product of trypsin cleavage of the pro-form; monomer of 27 kDa on SDS-PAGE; also called active-form; cleaved mature form; source: purified pro-Monalysin from P. entomophila L48, treated with trypsin (0.2 mg/mL, 25°C, 10 min)
In the case of B1, the figures for the “stoichiometry N” value in data set [3] and in data set [4] were around 8 and 8, respectively.

The values are drawn from article PMC7118224, “Molecular and Functional Analysis of Pore-Forming Toxin Monalysin From Entomopathogenic Bacterium Pseudomonas entomophila” (Frontiers in Immunology, 2020).
